Laboratory results taken from publication PMC6961784.

Assays:
[1] = molecular target: SNAPf-tagged EWS/FLI1 (human); assay: live-cell single-particle tracking
FUS LCD = FUS LCD (UniProt P35637); assay: live-cell single-particle tracking
UniProt P35637, sequence (P35637 2-214): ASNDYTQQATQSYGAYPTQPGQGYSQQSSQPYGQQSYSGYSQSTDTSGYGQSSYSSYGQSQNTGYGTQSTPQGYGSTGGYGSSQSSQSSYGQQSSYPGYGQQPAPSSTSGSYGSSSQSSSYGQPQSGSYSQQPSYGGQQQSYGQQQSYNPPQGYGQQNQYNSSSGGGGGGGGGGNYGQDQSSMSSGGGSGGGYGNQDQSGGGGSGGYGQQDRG

residence time (RT) [1]	residence time (RT) (FUS LCD)	Substance
16 s	–	EWS LCD-Halo (domain or fragment)
7 s	–	EWS(YS) LCD-Halo (domain or fragment)
–	< 1 s	Sp1 LCD (from UniProt P08047 1-785) (domain or fragment)
